From patent CN114984207A (ZHEJIANG TERUISI PHARMACEUTICAL INC, dated 2022)

What was measured:
[1] = molecular target: T1, PD-1蛋白 (冻干, fortebio assay) (UniProt Q15116 25-167, limits assumed); assay: BLI (Octet K2), antibody captured on Protein A sensor, PD-1 protein as analyte from 50 nM, 2-fold dilutions
T1 construct: also called 抗原PD-1蛋白; 冻干PD-1蛋白

人PD-1蛋白(Acro PD1-HB2F2) = molecular target: T2, 人PD-1蛋白(Acro PD1-HB2F2) (human, UniProt Q15116 25-167, limits assumed); assay: ELISA, human PD-1 protein coated at 20 ng/mL, antibody titrated from 1000 ng/mL
T2 construct: Bought protein coated on the ELISA plate; also called 抗原PD-1蛋白; human PD-1 protein
T2 sequence (Q15116 25-167 limits assumed): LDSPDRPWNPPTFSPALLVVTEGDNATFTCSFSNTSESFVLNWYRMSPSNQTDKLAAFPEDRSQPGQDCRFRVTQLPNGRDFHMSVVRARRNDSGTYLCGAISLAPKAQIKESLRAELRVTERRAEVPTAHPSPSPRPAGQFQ

T1 sequence (Q15116 25-167 limits assumed): as above

kon [1]: 274000 M⁻¹ s⁻¹
EC50 (人PD-1蛋白(Acro PD1-HB2F2)): 9.98 ng/mL
B1: 抗PD-1纳米抗体 N7 (Fc fusion)
chain: QVQLQESGGGLVQPGGSLRLSCAASGSTYLRFSMGWFRQVPGKEREGVAAIGGDGRTSYADSVKGRFTISKDNSKNTLYLDMNSLRAEDTAVYYCAAAVLLDGSFSLLAPLVPYKYDYWGQGTLVTVSSERKSSVECPPCPAPEFLGGPSVFLFPPKPKDTLMISRTPEVTCVVVDVSQEDPEVQFNWYVDGVEVHNAKTKPREEQFNSTYRVVSVLTVLHQDWLNGKEYKCKVSNKGLPSSIEKTISKAKGQPREPQVYTLPPSQEEMTKNQVSLTCLVKGFYPSDIAVEWESNGQPENNYKTTPPVLDSDGSFFLYSRLTVDKSRWQEGNVFSCSVMHEALHNHYTQKSLSLSLGK
